Reference: patent publication CN1737011A (SHANGHAI MEI EN BIO TECH CO LT, dated 2006)

Biological target: HLA-DR10抗原 (on live Raji cells, Burkitt's lymphoma, ATCC CCL-86) (human)
Experiment: radioimmunoassay with 131I-labelled antibody (5-110 ng/ml) on 10^6 live Raji cells, Scatchard plot, Ka = -(slope/n), n = 2

Ka: 3.36e+08 M⁻¹
B1: 抗HLA-DR10的特异性嵌合单克隆抗体 (131I标记, 131I-HLA-DR10) (antibody, V domains shown)
VH: QVQLKESGPGLVAPSQSLSITCTISGFSLTSYGVHWVRQPPGKGLEWLVVIWSDGSTTYNSALKSRLSISKDNSKSQVFLKMNSLQTDDTAIYYCASHYGSTLAFASWGHGTLVTVSA
VL: DIQMTQSPASLSASVGETVTIICRASVNIYSYLAWYQQKQGKSPQLLVYNAKILAEGVPSRFSGSGSGTQFSLKINSLQPEDFGSYYCQHHYGTFTFGSGTKLEIK
modifications: 131I label by the chloramine-T method; labelled residues not stated
notes: Mouse/human chimeric IgG1 kappa made in NS0-clym cells (CCTCC C200405); also called HLA-DR10单抗; chLym抗体; not shown: human immunoglobulin gamma-1 heavy chain constant region (from plasmid pSK-γ1); human immunoglobulin kappa light chain constant region (from plasmid pSK-κ)
